Biological target: T1, human PD-L1 protein (coated antigen) (human, UniProt Q9NZQ7 19-238, limits assumed)
T1 construct: Construct not described; also called PD-L1 antigen; antigenic protein PD-L1
Assay: PE-ELISA, crude extract on coated PD-L1
Experimental: (1) From the cell culture dishes containing phage after 3-4 rounds of screening in Example 2, 1000 individual colonies were selected and inoculated into TB medium containing 100 μg/ml of ampicillin (1 liter of TB medium contains 2.3 g of potassium dihydrogen phosphate, 12.52 g of dipotassium hydrogen phosphate, 12 g of peptone, 24 g of yeast extract, 4 ml of glycerol), after growth to log phase, add a final concentration of […] of IPTG, culture at 28° C. overnight. (2) The crude antibody was obtained by the infiltration method, and the antibody was transferred to an antigen-coated ELISA plate and placed at room temperature for 1 hour. (3) Unbound antibody was washed away with PBST, and a mouse anti-HA tag antibody (anti-mouse anti-HA antibody, purchased from Beijing Kangwei Century Biotechnology Co., Ltd.) was added and placed at room temperature for 1 hour. (4) Unbound antibody was washed away with PBST, and anti-mouse alkaline phosphatase conjugate (goat anti-mouse alkaline phosphatase-labeled antibody, purchased from Amytech Co., Ltd.) was added and placed at room temperature for 1 hour. (5) Wash the unbound antibody with PBST, add alkaline phosphatase coloring solution, and read the absorbance at 405 nm on an ELISA apparatus. (6) When the OD value of the sample well is more than 3 times the OD value of the control well (Ratio+/−>3), it is judged as a positive clone hole. (7) The bacteria of the positive clone well were shaken in a LB liquid containing 100 μg per ml to extract a plasmid and perform sequencing.

T1 sequence (Q9NZQ7 19-238 limits assumed): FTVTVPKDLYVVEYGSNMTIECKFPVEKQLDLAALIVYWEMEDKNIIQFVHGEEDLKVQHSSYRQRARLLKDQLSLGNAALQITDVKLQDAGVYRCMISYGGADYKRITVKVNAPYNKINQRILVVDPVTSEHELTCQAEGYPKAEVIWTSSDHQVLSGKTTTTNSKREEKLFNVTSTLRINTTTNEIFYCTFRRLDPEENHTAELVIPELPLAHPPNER

B1: SEQ ID NO 19 (VHH)
VHH: QVQLQESGGGSVQTGGSLRLSCAASTSIYSNNYMAWFSQAPGKGREGVAAVYIGDGRPYYADSVKGRFTISLDSAKNTVYLQMNSLKPEDTAMYYCAAAPGPLSRNYWYTSANYDYWGQGTQVTVSS
notes: pMECS-expressed; also called VHH numbered 19
- OD ratio (experimental group (A405 nm)/control group (A405 nm)): > 20

B2: SEQ ID NO 13 (VHH)
VHH: QVQLQESGGGSVQTGGSLRLSCAASTSIYSNNYMAWFSQNPGKGREGVAAVYIGDGRPYYADSVKGRFTISLDSAKNTVYLQMNSLKPEDTAMYYCAAAPGPLSRNYWYTSANYDYWGQGTQVTVSS
notes: pMECS-expressed; also called VHH numbered 13
- OD ratio (experimental group (A405 nm)/control group (A405 nm)): > 20

B3: SEQ ID NO 14 (VHH)
VHH: QVQLQESGGGSVQTGGSLRLSCAASTSIYSNNYMAWFSQAPGKGREGVAAVYIDDGRPYYADSVKGRFTISLDSAKNTVYLQVNSLKPEDTAMYYCAAAPGPLSRNYWYTSANYDYWGQGTQVTVSS
notes: pMECS-expressed; also called VHH numbered 14
- OD ratio (experimental group (A405 nm)/control group (A405 nm)): > 20

B4: SEQ ID NO 15 (VHH)
VHH: QVQLQESGGGSVQTGGSLRLSCAASTSIYSNNYMAWFSQAPGKGREGVAAVYIDDGRTYYADSVKGRFTISLDSAKNTVYLQMNSLKPEDTAMYYCAAAPGPLSYNYWYTSANYDYWGQGTQVTVSS
notes: pMECS-expressed; also called VHH numbered 15
- OD ratio (experimental group (A405 nm)/control group (A405 nm)): > 20

B5: SEQ ID NO 16 (VHH)
VHH: QVQLQESGGGSVQTGGSLRLSCAASPSIYSNNYMAWFSQAPGKGREGVAAVYIGDGRPYYADSVKGRFTISLDSAKNTVYLQMNSLKPEDTAMYYCAAAPGPLSRNYWYTSANYDYWGQGTQVTVSS
notes: pMECS-expressed; also called VHH numbered 16
- OD ratio (experimental group (A405 nm)/control group (A405 nm)): > 20

B6: SEQ ID NO 17 (VHH)
VHH: QVQLQESGGGSVQTGGSLRLSCAASTSIYSLNYMAWFSQAPGKGREGVAAVYIDDGRPYYADHVKGRFTISLDTAKNTVYLQMNSLKPEDTAMYYCAAAPGPLSRNYWYTSANYDYWGQGTQVTVSS
notes: pMECS-expressed; also called VHH numbered 17
- OD ratio (experimental group (A405 nm)/control group (A405 nm)): > 20

B7: SEQ ID NO 21 (VHH)
VHH: QVQLQESGGGSVQTGGSLRLSCAASTSIYSLNYMAWFSQAPGKGREGVAAVYIGDGRPYYADSVKGRFTISLDSAKNTVYLQMNSLKSEDTAMYYCAAAPGPLSRHYWYTSANYDYWGQGTQVTVSS
notes: pMECS-expressed; also called VHH numbered 21
- OD ratio (experimental group (A405 nm)/control group (A405 nm)): > 20

B8: SEQ ID NO 22 (VHH)
VHH: QVQLQESGGGSVQTGGSLRLSCAASTSIYSNNYMAWFSQAPRKGREGVAAVYIGDGRPYYADSVKGRFTISLDSAKNTVYLQMNSLKPEDTAMYYCAAAPGPLSHNYWYTSANYDYWGQGTQVTVSS
notes: pMECS-expressed; also called VHH numbered 22
- OD ratio (experimental group (A405 nm)/control group (A405 nm)): > 20

B9: SEQ ID NO 23 (VHH)
VHH: QVQLQESGGGSVQTGGSLRLSCAASTSLYSYNYMAWFSQAPGKGREGVAAVYVGDGRPYYADSVKGRFTISLDSAKNTVYLQMNSLKPEDTAMYYCAAAPGPLSHNYWYTSANYDYWGQGTQVTVSS
notes: pMECS-expressed; also called VHH numbered 23
- OD ratio (experimental group (A405 nm)/control group (A405 nm)): > 20

B10: SEQ ID NO 24 (VHH)
VHH: QVQLQESGGGSVQTGGSLRLSCTASTSIYSNNYMAWFSQSPGKGREGVAAVYMDDGRPYYADSVKGRFTISLDSAKNTMYLQMNSLKPEDTAMYYCAAAPGPLSRNYWYTSANYDYWGQGTQVTVSS
notes: pMECS-expressed; also called VHH numbered 24
- OD ratio (experimental group (A405 nm)/control group (A405 nm)): > 20

B11: SEQ ID NO 25 (VHH)
VHH: QVQLQESGGGSVQTGGSLRLSCTASTSIYSNNYMAWFSQAPGKGREGVAAVYIGDGRPYYADSVKGRFTISLDSAKNTVYLQMNSLKPEDTAMYYCAAAPGPLSHNYWYTSANYDYWGQGTQVTVSS
notes: pMECS-expressed; also called VHH numbered 25
- OD ratio (experimental group (A405 nm)/control group (A405 nm)): > 20

B12: SEQ ID NO 26 (VHH)
VHH: QVQLQESGGGSVQTGGSLRLSCAASTSIYNNNYMAWFSQAPGKEREGVAAVYIGDGRPYYADSVKGRFTISLDSAKNTVYLQMNSLKPEDTAMYYCAAAPGPLSRNYWYTSANYDYWGQGTQVTVSS
notes: pMECS-expressed; also called VHH numbered 26
- OD ratio (experimental group (A405 nm)/control group (A405 nm)): > 20

B13: SEQ ID NO 27 (VHH)
VHH: QVQLQESGGGSVQTGGSLRLSCTASTSIYSNNYMAWFSQSPGKGREGVAAVYMDDGRPYYADSVKGRFTISLDSAKNTMYLQMNSLKPEDTAMYYCAAAPGPLSRNYWYTSANYDYWGQGTQVTVSS
notes: pMECS-expressed; also called VHH numbered 27
- OD ratio (experimental group (A405 nm)/control group (A405 nm)): > 20

B14: SEQ ID NO 28 (VHH)
VHH: QVQLQESGGGSVQTGGSLRLSCAASTSIYSNNYMAWFRQAPGKGREGVAAVYIDDGRPYYADSVKGRFTISLDSAKNTVYLQMNSLKPEDTAMYYCAAAPGPLSRHYWYTSANYDYWGPGTQVTVSS
notes: pMECS-expressed; also called VHH numbered 28
- OD ratio (experimental group (A405 nm)/control group (A405 nm)): > 20

B15: SEQ ID NO 29 (VHH)
VHH: QVQLQESGGGSVRTGGSLRLSCAASPSIYSNNYMAWFSQAPGKGREGVAAVYIDDGRPYYADSVKGRFTISLDSAKNTVYLQMNSLKPEDTAMYYCAAAPGPLSRNYWYTSANYDYWGQGTQVTVSS
notes: pMECS-expressed; also called VHH numbered 29
- OD ratio (experimental group (A405 nm)/control group (A405 nm)): > 20

B16: SEQ ID NO 30 (VHH)
VHH: QVQLQESGGGSVQTGGSLRLSCTASTSIYSNNYMAWFSQAPGKGREGVAAVYIDDGRPYYADSVKGRFTISLDSAKNTVYLQMNSLKPEDTAMYYCAAAPGPLSRNYWYTSANYDYWGQGTQVTVSS
notes: pMECS-expressed; also called VHH numbered 30
- OD ratio (experimental group (A405 nm)/control group (A405 nm)): > 20

B17: SEQ ID NO 31 (VHH)
VHH: QVQLQESGGGSVQTGGSLRLSCAASTSIYSNNYMAWFRQAPGKGREGVAGVYIGDGRPYYADSVKGRFTISLDSAKNTVYLQMNSLKPEDTAMYYCAAAPGPLSHHYWYTSANYDYWGPGTQVTVSS
notes: pMECS-expressed; also called VHH numbered 31
- OD ratio (experimental group (A405 nm)/control group (A405 nm)): > 20

B18: SEQ ID NO 32 (VHH)
VHH: QVQLQESGGGSVQTGGSLRLSCAASTSIYSINYMAWFSQAPGKGREGVAAVYIGDGRPYYADSVKGRFTISLDSAKNTVYLQMNSLKPEDTAMYYCAAAPGPLSQHYWYTSANYDYWGQGTQVTVSS
notes: pMECS-expressed; also called VHH numbered 32
- OD ratio (experimental group (A405 nm)/control group (A405 nm)): > 20

B19: SEQ ID NO 33 (VHH)
VHH: QVQLQESGGGSVQTGGSLRLSCACSTSIYSNNYMAWFSQAPGKGREGVAAVYIGDGRPYYADSVKGRFTISLDSAKNTMYLQMNSLKPEDTAMYYCAAAPGPLSQHYWYTSANYDYWGQGTQVTVSS
notes: pMECS-expressed; also called VHH numbered 33
- OD ratio (experimental group (A405 nm)/control group (A405 nm)): > 20

B20: SEQ ID NO 35 (VHH)
VHH: QVQLQESGGGSVQTGGSLRLSCTASTSIYSNNYMAWFSQAPGKGREGVAAVYIDDGRPYYADSVKGRFTISLDSAKNTVYLQMNSLKPEDTAMYYCAAAPGPLSRNYWYTSANYDYWGQGTQVTVSS
notes: pMECS-expressed; also called VHH numbered 35
- OD ratio (experimental group (A405 nm)/control group (A405 nm)): > 20

B21: SEQ ID NO 36 (VHH)
VHH: QVQLQESGGGSVQTGGSLRLSCAASTSLYSYNYMAWFSQAPGKGREGVAAVYVGDGRPYYAASVKGRFTISLDSAKNTVYLQMNSLKPEDTAMYYCAAAPGPLSHNYWYTSANYDYWGQGTQVTVSS
notes: pMECS-expressed; also called VHH numbered 36
- OD ratio (experimental group (A405 nm)/control group (A405 nm)): > 20

B22: SEQ ID NO 37 (VHH)
VHH: QVQLQESGGGSVQTGGSLRLSCAASTSIYSINYMAWFRQAPGKGREGVAAVYIDDGRPYYADSVKGRFTISLDSAKNTVYLQMTSLKSEDTAMYYCAAAPGPLSRSYWYTSANYDYWGQGTQVTVSS
notes: pMECS-expressed; also called VHH numbered 37
- OD ratio (experimental group (A405 nm)/control group (A405 nm)): > 20

— patent US20190177416A1 (NANOMAB TECHNOLOGY, published 2019)
